{
  "source": "patent US20260258158A1",
  "about": "(Janssen / Centocor, published 2026)",
  "binders": {"B1": {"name": "HLPPB423 (bispecific antibody, human IgG1, kappa)", "heavy 1": "not shown", "light 1": "not shown", "heavy 2": "EVQLVESGGGLVQPGGSLRLSCAASGYSFTGYTMNWVRQAPGKGLEWVALINPYKGVSTYNQKFKDRFTISVDKSKNTAYLQMNSLRAEDTAVYYCARSGYYGDSDWYFDVWGQGTLVTVSSASTKGPSVFPLAPSSKSTSGGTAALGCLVKDYFPEPVTVSWNSGALTSGVHTFPAVLQSSGLYSLSSVVTVPSSSLGTQTYICNVNHKPSNTKVDKKVEPKSCDKTHTCPPCPAPELLGGPSVFLFPPKPKDTLMISRTPEVTCVVVDVSHEDPEVKFNWYVDGVEVHNAKTKPREEQYNSTYRVVSVLTVLHQDWLNGKEYKCKVSNKALPAPIEKTISKAKGQPREPQVYTLPPSREEMTKNQVSLSCAVKGFYPSDIAVEWESNGQPENNYKTTPPVLDSDGSFFLVSKLTVDKSRWQQGNVFSCSVMHEALHNRFTQKSLSLSPGK", "light 2": "not shown"}},
  "biological_target": "T1, Biotinylated Human CD3 epsilon&CD3 delta Heterodimer Protein, His, Avitag&Tag Free (AcroBiosystems) (human, UniProt P07766 23-126; P04234 22-105)",
  "T1 construct": "also called cluster of differentiation 3 (CD3); soluble CD3 antigen",
  "T1 sequence (P07766 23-126, stated change not applied, chain 1 of 2)": "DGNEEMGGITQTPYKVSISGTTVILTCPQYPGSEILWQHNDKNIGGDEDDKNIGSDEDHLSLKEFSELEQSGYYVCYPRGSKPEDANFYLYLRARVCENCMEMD",
  "T1 sequence (P04234 22-105, stated change not applied, chain 2 of 2)": "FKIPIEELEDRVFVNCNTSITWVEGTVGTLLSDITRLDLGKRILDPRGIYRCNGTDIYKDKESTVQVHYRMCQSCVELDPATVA",
  "assay": "BLI, biotinylated CD3 epsilon/delta on the tip, antibody as analyte (FIG. 24C)",
  "data": [
    {"binder": "B1", "values": [
      {"measurement": "binding result", "result": "binds"}
    ]}
  ]
}
